Assay results from patent US20250320284A1 (AC IMMUNE, published 2025).

T1: mouse ASC (mouse, UniProt Q9EPB4 1-193)
T1 sequence: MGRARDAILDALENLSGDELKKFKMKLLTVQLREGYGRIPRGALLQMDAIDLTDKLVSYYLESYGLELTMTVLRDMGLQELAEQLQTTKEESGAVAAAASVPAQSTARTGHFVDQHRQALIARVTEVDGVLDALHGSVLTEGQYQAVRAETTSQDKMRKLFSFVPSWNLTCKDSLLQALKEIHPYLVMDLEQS

T2: CARD domain of human ASC (human, UniProt Q9ULZ3 107-195)
T2 construct: biotinylated in BLI; also called hCARD; human CARD
T2 sequence: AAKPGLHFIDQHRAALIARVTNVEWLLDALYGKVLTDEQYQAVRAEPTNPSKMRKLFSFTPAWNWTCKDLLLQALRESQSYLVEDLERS


Assays:
mouse ASC [1] = target: T1, mouse ASC; test: cell-based or functional assay
mouse ASC [2] = target: T1, mouse ASC; test: cell-based or functional assay; remark: listed apart in the source
mouse ASC [3] = target: T1, mouse ASC; test: ELISA, coated mASC; ELISA on mASC protein
mouse ASC [4] = target: T1, mouse ASC; test: SPR affinity mode, steady-state fit, apparent KD; SPR affinity mode, mAb captured, mASC in solution; steady-state fit, apparent KD
[5] = target: T3, human ASC (apoptosis associated speck-like protein containing a caspase-recruitment domain) (human, UniProt Q9ULZ3 1-195); test: ELISA, coated hASC;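 also: antibody binding to plate-coated recombinant human ASC, read as phosphatase substrate absorbance, EC50 from four-parameter variable-slope fit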
T3 construct: recombinant hASC in ELISA and SPR; endogenous ASC (cytoplasmic or specks) in Western blot and immunofluorescence; also called hASC; PYCARD

PYD domain of human ASC [6] = target: T4, PYD domain of human ASC (human, UniProt Q9ULZ3 1-91, limits assumed); test: ELISA, coated hPYD;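 also: monoclonal antibody binding to plate-coated human ASC PYD measured by ELISA, with a phosphatase substrate absorbance read-out and EC50 from a variable slope curve fit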
T4 construct: biotinylated in BLI; His/MBP-tagged in the alanine ELISA; also called hPYD; human PYD

CARD domain of human ASC [7] = target: T2, CARD domain of human ASC; test: ELISA, coated hCARD
[8] = target: T3, human ASC (apoptosis associated …); test: cell-based or functional assay
[9] = target: T3, human ASC (apoptosis associated …); test: SPR affinity mode, mAb captured;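 also: Single-cycle SPR kinetics with mAbs captured on goat anti-mouse antibody, double-referenced against blank flow cell and buffer cycle, fitted by a 1:1 kinetic model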
CARD domain of human ASC [10] = target: T2, CARD domain of human ASC; test: BLI binning on CARD, competitor 32B6C7-Ab1
CARD domain of human ASC [11] = target: T2, CARD domain of human ASC; test: BLI binning on CARD, competitor 18F4C12-Ab1
CARD domain of human ASC [12] = target: T2, CARD domain of human ASC; test: BLI binning on CARD, competitor 2504F3D9-Ab1
CARD domain of human ASC [13] = target: T2, CARD domain of human ASC; test: BLI binning on CARD, competitor 2609F4A9-Ab1
CARD domain of human ASC [14] = target: T2, CARD domain of human ASC; test: BLI binning on CARD, competitor 2629E8D1-Ab1
CARD domain of human ASC [15] = target: T2, CARD domain of human ASC; test: BLI binning on CARD, competitor 2622E12F11-Ab1
[16] = target: T3, human ASC (apoptosis associated …); test: cell-based or functional assay; remark: listed apart in the source
mouse ASC [17] = target: T1, mouse ASC; test: ELISA, coated mASC
mouse ASC [18] = target: T1, mouse ASC; test: SPR affinity mode, mAb captured;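 also: Single-cycle SPR kinetics with mAbs captured on goat anti-mouse antibody, double-referenced against blank flow cell and buffer cycle, fitted by a 1:1 kinetic model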
PYD domain of human ASC [19] = target: T4, PYD domain of human ASC; test: BLI binning on PYD, competitor 22D3A6-AB1
PYD domain of human ASC [20] = target: T4, PYD domain of human ASC; test: BLI binning on PYD, competitor 23E5F7-AB2
PYD domain of human ASC [21] = target: T4, PYD domain of human ASC; test: BLI binning on PYD, competitor 26A1G2-AB1
PYD domain of human ASC [22] = target: T4, PYD domain of human ASC; test: BLI binning on PYD, competitor 31F10C5-AB1
PYD domain of human ASC [23] = target: T4, PYD domain of human ASC; test: BLI binning on PYD, competitor 401H9B7-AB1
PYD domain of human ASC [24] = target: T4, PYD domain of human ASC; test: BLI binning on PYD, competitor 416E6G4-AB1
PYD domain of human ASC [25] = target: T4, PYD domain of human ASC; test: BLI binning on PYD, competitor 2610H7D3-AB1
PYD domain of human ASC [26] = target: T4, PYD domain of human ASC; test: BLI binning on PYD, competitor 2617C3A8-AB1
PYD domain of human ASC [27] = target: T4, PYD domain of human ASC; test: BLI binning on PYD, competitor 2626B9D3-AB1

T4 sequence (Q9ULZ3 1-91 limits assumed): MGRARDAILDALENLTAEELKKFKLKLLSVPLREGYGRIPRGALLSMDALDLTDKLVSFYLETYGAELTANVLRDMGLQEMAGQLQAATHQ

Binder | Mouse ASC polymerization assay, IC50 (mouse ASC [1]) [nM] | % IL-1β inhibition, mouse primary microglia, 420 nM mAb (mouse ASC [2]) [%] | EC50 (mouse ASC [3]) [nM] | Kd (mouse ASC [4]) [nM] | EC50 [5] [nM] | binding result (PYD domain of human ASC [6]) | EC50 (CARD domain of human ASC [7]) [nM] | IL-1β release, human monocytic cell line, IC50 [8] [nM] | Kd [9] [nM] | koff [9] [s⁻¹] | kon [9] [M⁻¹ s⁻¹] | normalized binding response (CARD domain of human ASC [10]) [%] | normalized binding response (CARD domain of human ASC [11]) [%] | normalized binding response (CARD domain of human ASC [12]) [%] | normalized binding response (CARD domain of human ASC [13]) [%] | normalized binding response (CARD domain of human ASC [14]) [%] | normalized binding response (CARD domain of human ASC [15]) [%] | Human ASC polymerization assay, IC50 [16] [nM] | other results
ACI-8016-2626B9D3-AB1 (antibody, V domains shown) VH: QVQLQQPGTELVKPGASVKLSCRASGWTHWVKQRPGQGLEWIGNINLSNGRTNYNEKFRAMATLTVDKSSSTAYTQLSSLTSEDSAVYYCANSMVPHFFPMDYWGQGTSVTVSS VL: NIVMTQYPKSMSLSIGERVTLRCKASENVGSYVSWYQQKPEQSPKLLIYGASNRYTGVPDRFTGSGSATDFILTITSVQAEDLADYHCGQSYNYPLTFGAGTKLELK | 27.3 | 52 | 0.38 | 34.4 | – | – | – | – | – | – | – | – | – | – | – | – | – | – | –
ACI-8016-2504F3D9-AB1 (antibody, V domains shown) VH: DVKLVESGEGLVKPGGSLKLSCAVSGFTFSNYAMSWVRQTPEKRLEWVAYISSGGDFIYYRDTVKGRFTISRDNARNTLYLQMSSLKSEDTAMYYCILQLRPEAWFAYWGQGTLVTVSA VL: DIKMTQSPSSMYASLGERVTITCKASQDIKNYLSWFQQIPGKSPKTLIYRANRLVDGVPSRFSGSGSGQDYSLTISSLEYEDMGIYYCLQYYEFPYTFGGGTKLEIK | – | – | – | – | 0.19 | no binding | 0.13 | 16.7 | 8.3 | 0.000723 | 89300 | 21 | 76 | 0 | 17 | 20 | 19 | – | –
ACI-8016-31F10C5-AB1 (antibody, V domains shown, also called 936.31F10C5) VH: QVQLQQSEPELARPGASVKLSCTASGYTFINYGVSWVRQRTGQGLEWIGRIYPRSGNTRFNEKFQGKATLTADTSSSTAYMELRSLTSEDSAVYFCTRFPYAFSGNSYWYFDVWGTGTTVTVSS VL: DIVMTQSHKFMSTSIGDRVSITCKASQDVSAAVAWYQQKPGQSPKLLIYSSSFRYTGVPDRFTGSASGTDFTFTITTVQAEDLAVYYCQQHFDTPYTFGGGTKLEIK | 34.8 | 90.5 | – | – | 0.24 | – | – | 33 | 0.16 | 0.000199 | 1.23e+06 | – | – | – | – | – | – | 6.3 | EC50 (PYD domain of human ASC [6]): 0.18 nM; EC50 (mouse ASC [17]): 0.3 nM; binding result (CARD domain of human ASC [7]): no binding; Kd (mouse ASC [18]): 0.36 nM; koff (mouse ASC [18]): 0.000314 s⁻¹; kon (mouse ASC [18]): 886000 M⁻¹ s⁻¹; normalized binding response (PYD domain of human ASC [19]): 3%; normalized binding response (PYD domain of human ASC [20]): 2%; normalized binding response (PYD domain of human ASC [21]): 0%; normalized binding response (PYD domain of human ASC [22]): 1%; normalized binding response (PYD domain of human ASC [23]): 79%; normalized binding response (PYD domain of human ASC [24]): 4%; normalized binding response (PYD domain of human ASC [25]): 2%; normalized binding response (PYD domain of human ASC [26]): 3%; normalized binding response (PYD domain of human ASC [27]): 49%

Continued, in another order:

Mouse ASC polymerization assay, IC50 (mouse ASC [1]) [nM] | % IL-1β inhibition, mouse primary microglia, 420 nM mAb (mouse ASC [2]) [%] | EC50 (mouse ASC [3]) [nM] | Kd (mouse ASC [4]) [nM] | EC50 [5] [nM] | binding result (PYD domain of human ASC [6]) | EC50 (CARD domain of human ASC [7]) [nM] | IL-1β release, human monocytic cell line, IC50 [8] [nM] | Kd [9] [nM] | koff [9] [s⁻¹] | kon [9] [M⁻¹ s⁻¹] | normalized binding response (CARD domain of human ASC [10]) [%] | normalized binding response (CARD domain of human ASC [11]) [%] | normalized binding response (CARD domain of human ASC [12]) [%] | normalized binding response (CARD domain of human ASC [13]) [%] | normalized binding response (CARD domain of human ASC [14]) [%] | normalized binding response (CARD domain of human ASC [15]) [%] | Human ASC polymerization assay, IC50 [16] [nM] | Binder | other results
– | 95.9 | 0.16 | 176 | 0.11 | no binding | 0.12 | 30.8 | 3.66 | 0.000786 | 235000 | 91 | 18 | -2 | 74 | 87 | 0 | 19.4 | ACI-8016-2622E12F11-AB1 (antibody, V domains shown) VH: RVQLQQAGAELVKPGASVKVSCKASGNTFNNYWIYWVKQRPGQGLEWIGRIHPSDSGTNYNQKFEGKATLTVDKSSGTAYMQLSSLTAEDSAVYYCALLSLYAMDSWGHGTSVTVSS VL: DIVLTQSPASLAVSLGQRATISCRASKSVSSFGYNYIHWYLQKPGQPPKLLIYLASDLESGVPARFSGSGSGTGFTLNIHPVEEEDAATYYCQHSREFPWTFGGGTKLEIK | –
– | 82.3 | 0.3 | 168 | 0.12 | no binding | 0.11 | 16.2 | 24.9 | 0.00783 | 297000 | 7 | 96 | 0 | 0 | 0 | 103 | 32.8 | ACI-8016-2609F4A9-AB1 (antibody, V domains shown) VH: QVQLQQSDAELVKPGASVKISCKVSGYALTDHSIHWMKQRPEQGLAWIGYMYPGDGSANYNDKFRGKATLTADISSSTAYMHLNSLTSEDSAVYFCTRPYSFGSSYDYFGYWGQGTTLTVSS VL: DIQMNQSPSSLSASLGDTITITCHASQNINVWLNWYQQKPGNIPKLLIYKASKLHTGVSSSFSGSGSGTGFTLTISSLQPEDIGTYYCQQGQSYPYTFGGGTKLEIK | –
– | 88.8 | 0.22 | 134 | 0.11 | no binding | 0.12 | 14.9 | 1.38 | 0.000182 | 140000 | 3 | 95 | -2 | -2 | 0 | 102 | 14.1 | ACI-8016-2629E8D1-AB1 (antibody, V domains shown, also called ACI-8016-2629E8D1-AB1_rmG2a_01) VH: QVQLQQSDAELVKPGGSVKISCKVSGYTFTDHTIHWMKQRPEQGLEWIGNIYPGDGSTMYNEKFKGKATLTADKSSSTAYMHLNSLTSEDSAVYFCARPYYFGSASYYFGYWGQGTTLTVSS VL: DIQMNQSPSSLSASLGDTITITCHASQNINVWLNWYQQKPGNIPKLLIYKASNLHTGVPSRFSGSGSGIGFTLTISSLQPEDIATYYCQQGQSYPLTFGGGTKLEIK | –
